Source: paper doi:10.1101/2020.01.02.893370 (bioRxiv, 2020)

B1: E. coli σ^28 factor (natural protein, UniProt P0AEM6 1-239, looked up)
chain: MNSLYTAEGVMDKHSLWQRYVPLVRHEALRLQVRLPASVELDDLLQAGGIGLLNAVERYDALQGTAFTTYAVQRIRGAMLDELRSRDWVPRSVRRNAREVAQAIGQLEQELGRNATETEVAERLGIDIADYRQMLLDTNNSQLFSYDEWREEHGDSIELVTDDHQRENPLQQLLDSNLRQRVMEAIETLPEREKLVLTLYYQEELNLKEIGAVLEVGESRVSQLHSQAIKRLRTKLGKL
B2: lacUV5p (dsDNA)
DNA 1: CCCGCCGACAGGTTTCCCGACTGGAAAGCGGGCAGTGAGCGCAACGCAATTAATGTGAGTTAGCTCACTCATTAGGCACCCCAGGCTTTACACTTTATGCTTCCGGCTCGTATAATGTGTGGAATTGTGAGCGGATAACAATTTCACACAGGAAACAGCTATGACCATGGGCGCGG
DNA 2: CCGCGCCCATGGTCATAGCTGTTTCCTGTGTGAAATTGTTATCCGCTCACAATTCCACACATTATACGAGCCGGAAGCATAAAGTGTAAAGCCTGGGGTGCCTAATGAGTGAGCTAACTCACATTAATTGCGTTGCGCTCACTGCCCGCTTTCCAGTCGGGAAACCTGTCGGCGGG

How the values were obtained:
[1] = target: E. coli RNA polymerase β′ subunit (E. coli, UniProt P0A8T7 1-1407); experiment: cryo-EM structure
Sequence of E. coli RNA polymerase β′ subunit (P0A8T7 whole entry): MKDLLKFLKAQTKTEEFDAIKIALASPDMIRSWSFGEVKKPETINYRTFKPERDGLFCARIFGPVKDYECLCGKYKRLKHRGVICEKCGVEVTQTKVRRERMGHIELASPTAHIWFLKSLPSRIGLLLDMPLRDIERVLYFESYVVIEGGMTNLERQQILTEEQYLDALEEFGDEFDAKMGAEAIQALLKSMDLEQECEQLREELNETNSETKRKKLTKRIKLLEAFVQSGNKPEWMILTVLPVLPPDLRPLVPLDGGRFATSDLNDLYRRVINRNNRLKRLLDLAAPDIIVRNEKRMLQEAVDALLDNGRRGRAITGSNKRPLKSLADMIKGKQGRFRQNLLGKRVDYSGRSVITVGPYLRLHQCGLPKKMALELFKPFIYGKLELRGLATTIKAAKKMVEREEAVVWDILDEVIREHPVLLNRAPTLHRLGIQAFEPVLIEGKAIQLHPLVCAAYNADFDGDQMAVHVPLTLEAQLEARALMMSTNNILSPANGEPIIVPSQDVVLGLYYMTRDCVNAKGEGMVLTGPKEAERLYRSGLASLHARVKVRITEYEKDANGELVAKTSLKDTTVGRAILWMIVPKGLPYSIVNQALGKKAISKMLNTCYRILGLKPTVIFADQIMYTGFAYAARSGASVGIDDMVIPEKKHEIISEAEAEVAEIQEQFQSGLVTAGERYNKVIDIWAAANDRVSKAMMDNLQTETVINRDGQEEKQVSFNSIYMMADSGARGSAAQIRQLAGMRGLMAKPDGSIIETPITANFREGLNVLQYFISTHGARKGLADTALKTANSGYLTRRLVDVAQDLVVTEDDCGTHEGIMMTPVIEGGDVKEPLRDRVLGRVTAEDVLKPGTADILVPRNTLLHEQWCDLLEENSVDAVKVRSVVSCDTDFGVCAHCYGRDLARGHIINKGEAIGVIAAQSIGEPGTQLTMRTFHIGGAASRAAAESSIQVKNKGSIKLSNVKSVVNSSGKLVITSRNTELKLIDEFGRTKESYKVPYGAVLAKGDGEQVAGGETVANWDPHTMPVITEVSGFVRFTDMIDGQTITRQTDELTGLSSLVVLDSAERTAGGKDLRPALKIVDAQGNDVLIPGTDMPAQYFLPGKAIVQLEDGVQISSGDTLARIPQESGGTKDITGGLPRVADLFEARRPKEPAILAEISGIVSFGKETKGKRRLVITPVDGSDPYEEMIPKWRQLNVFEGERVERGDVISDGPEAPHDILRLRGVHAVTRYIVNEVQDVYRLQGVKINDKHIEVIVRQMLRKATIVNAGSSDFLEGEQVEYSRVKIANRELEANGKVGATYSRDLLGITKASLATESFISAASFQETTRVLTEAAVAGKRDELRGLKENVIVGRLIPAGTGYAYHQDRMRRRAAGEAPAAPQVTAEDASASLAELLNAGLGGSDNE

[2] = target: sigma70 (RpoD);RNAP core enzyme wild type (alpha2 beta beta' omega) (Escherichia coli;Escherichia coli, UniProt P00579;P0A7Z4;P0A8V2;P0A8T7;P0A800 1-613;1-329;1-1342;1-1407;1-91, |); experiment: DNase I footprinting
Sequence of sigma70 (RpoD);RNAP core enzyme wild type (alpha2 beta beta' omega) (P00579 whole entry, chain 1 of 4): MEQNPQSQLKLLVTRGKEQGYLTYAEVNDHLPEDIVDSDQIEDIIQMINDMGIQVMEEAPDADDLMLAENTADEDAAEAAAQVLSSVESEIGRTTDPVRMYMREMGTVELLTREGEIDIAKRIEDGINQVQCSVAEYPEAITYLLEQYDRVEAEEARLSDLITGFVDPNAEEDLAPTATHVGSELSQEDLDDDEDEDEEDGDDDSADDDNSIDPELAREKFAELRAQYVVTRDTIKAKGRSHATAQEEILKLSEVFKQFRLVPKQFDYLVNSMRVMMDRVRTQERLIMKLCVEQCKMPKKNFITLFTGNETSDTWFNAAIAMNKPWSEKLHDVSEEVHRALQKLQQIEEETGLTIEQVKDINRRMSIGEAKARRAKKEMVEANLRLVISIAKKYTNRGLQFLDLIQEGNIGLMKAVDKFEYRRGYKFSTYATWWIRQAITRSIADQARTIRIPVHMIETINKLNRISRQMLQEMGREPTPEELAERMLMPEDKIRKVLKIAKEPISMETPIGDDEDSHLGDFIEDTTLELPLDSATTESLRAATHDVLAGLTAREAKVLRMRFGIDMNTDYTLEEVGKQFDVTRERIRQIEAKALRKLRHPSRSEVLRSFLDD
Sequence of sigma70 (RpoD);RNAP core enzyme wild type (alpha2 beta beta' omega) (P0A7Z4 whole entry, chain 2 of 4): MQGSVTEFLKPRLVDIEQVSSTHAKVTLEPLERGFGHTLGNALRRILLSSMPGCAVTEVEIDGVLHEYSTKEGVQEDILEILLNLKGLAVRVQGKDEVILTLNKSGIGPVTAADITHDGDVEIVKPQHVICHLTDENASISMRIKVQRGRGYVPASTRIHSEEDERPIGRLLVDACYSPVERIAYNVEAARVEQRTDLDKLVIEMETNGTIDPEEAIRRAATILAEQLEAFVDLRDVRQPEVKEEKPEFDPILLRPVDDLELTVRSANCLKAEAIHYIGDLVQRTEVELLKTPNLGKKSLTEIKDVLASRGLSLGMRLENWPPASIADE
Sequence of sigma70 (RpoD);RNAP core enzyme wild type (alpha2 beta beta' omega) (P0A8V2 whole entry, chain 3 of 4): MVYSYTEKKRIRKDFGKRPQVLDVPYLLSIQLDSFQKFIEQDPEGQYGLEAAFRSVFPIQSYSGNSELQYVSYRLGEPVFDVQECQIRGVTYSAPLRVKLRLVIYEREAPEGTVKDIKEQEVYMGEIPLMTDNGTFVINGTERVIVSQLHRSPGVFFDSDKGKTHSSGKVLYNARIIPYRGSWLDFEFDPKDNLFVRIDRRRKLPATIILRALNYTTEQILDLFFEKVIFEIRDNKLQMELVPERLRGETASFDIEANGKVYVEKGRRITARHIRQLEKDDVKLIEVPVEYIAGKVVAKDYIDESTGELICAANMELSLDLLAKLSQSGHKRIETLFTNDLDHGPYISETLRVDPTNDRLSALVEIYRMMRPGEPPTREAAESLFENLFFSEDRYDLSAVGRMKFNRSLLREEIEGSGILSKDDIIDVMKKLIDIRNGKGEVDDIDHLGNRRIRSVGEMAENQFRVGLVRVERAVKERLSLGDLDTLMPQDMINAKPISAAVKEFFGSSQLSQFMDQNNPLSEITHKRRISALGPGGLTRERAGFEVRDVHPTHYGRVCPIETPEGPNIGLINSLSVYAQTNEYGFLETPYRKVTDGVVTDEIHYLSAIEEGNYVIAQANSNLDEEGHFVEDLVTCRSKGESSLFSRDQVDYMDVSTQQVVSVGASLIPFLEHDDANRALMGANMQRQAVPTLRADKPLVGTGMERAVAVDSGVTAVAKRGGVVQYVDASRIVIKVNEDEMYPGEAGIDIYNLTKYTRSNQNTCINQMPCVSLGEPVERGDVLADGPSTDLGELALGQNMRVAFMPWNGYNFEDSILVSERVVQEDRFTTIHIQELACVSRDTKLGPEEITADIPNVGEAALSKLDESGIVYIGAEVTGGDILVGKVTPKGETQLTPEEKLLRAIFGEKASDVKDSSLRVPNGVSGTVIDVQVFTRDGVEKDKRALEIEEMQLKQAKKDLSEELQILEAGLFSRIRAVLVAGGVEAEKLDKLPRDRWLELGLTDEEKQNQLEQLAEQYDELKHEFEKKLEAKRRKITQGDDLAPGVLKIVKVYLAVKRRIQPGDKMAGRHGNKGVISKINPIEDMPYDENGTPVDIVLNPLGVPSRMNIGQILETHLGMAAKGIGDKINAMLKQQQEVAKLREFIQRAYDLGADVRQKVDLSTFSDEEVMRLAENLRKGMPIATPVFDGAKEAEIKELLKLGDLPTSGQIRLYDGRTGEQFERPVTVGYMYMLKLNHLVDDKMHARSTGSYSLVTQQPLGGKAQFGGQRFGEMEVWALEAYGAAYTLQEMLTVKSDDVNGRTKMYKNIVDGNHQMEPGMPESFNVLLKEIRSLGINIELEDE
Sequence of sigma70 (RpoD);RNAP core enzyme wild type (alpha2 beta beta' omega) (P0A800 whole entry, chain 5 of 4): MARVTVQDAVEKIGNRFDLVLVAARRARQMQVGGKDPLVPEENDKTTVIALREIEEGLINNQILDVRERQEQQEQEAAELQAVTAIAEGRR

Row | Binder | binding result [1] | binding result [2]
1 | B1 | binds | –
2 | B2 | – | binds
